Assay results: patent publication US20260159579A1 (Pfizer, published 2026)
Positions count from the first letter of the chain named. Values joined by “and” are separate entries in the source; they are usually repeats but may differ in a detail not shown here. Equal values may be shown once. Read-outs that look alike come from different tables or passages of the source.

Columns and labels:
[1] = biological target: T1, Mouse Fc-human GDF15 (Mu IgG1Fc_Fxa_Hu GDF15) (human); experiment: SPR BIAcore T200, 37C; Fc-GDF15 captured, IgG as analyte; average of runs
T1 construct: Whole entry is the fusion: mouse IgG1 Fc, FXa site and linker, mature human GDF15; described as dimeric; also called Murine dimeric IgG1 Fc-human GDF-15 with FXa cleavage site; control human GDF15
T1 chain: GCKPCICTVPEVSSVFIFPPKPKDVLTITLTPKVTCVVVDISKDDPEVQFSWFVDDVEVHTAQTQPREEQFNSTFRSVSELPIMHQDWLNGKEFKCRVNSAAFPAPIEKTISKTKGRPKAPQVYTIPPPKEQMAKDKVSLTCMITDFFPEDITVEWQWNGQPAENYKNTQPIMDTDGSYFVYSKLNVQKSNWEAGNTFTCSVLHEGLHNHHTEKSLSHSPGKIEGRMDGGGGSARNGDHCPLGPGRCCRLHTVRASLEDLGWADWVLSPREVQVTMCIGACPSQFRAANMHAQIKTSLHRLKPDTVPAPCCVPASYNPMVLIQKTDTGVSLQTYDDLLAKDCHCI
Protocol: (§1) Mouse Fc-human GDF15 (Mu IgG1Fc_Fxa_Hu GDF15; SEQ ID NO:2), Mouse Fc-mouse GDF15 (Mu IgG1Fc_Fxa_Mu GDF15; SEQ ID NO:5) and Mouse Fc-cynomolgus monkey GDF15 (Mu IgG1Fc_Fxa_Cyno GDF15; SEQ ID NO:4) were captured onto three different flow cells of a CM4 sensorchip (catalogue number BR100534, GE Healthcare) surface using the Mouse Antibody Capture Kit (BR100838, GE Healthcare) according to the manufacturer's protocol. The running and sample bufferwas 10 mM HEPES pH 7.4, 0.15M NaCl, 3 mM EDTA, 0.05% P-20 (HBS-EP+). The final capture levels of Mu IgG1Fc_Fxa_Hu GDF15, Mu IgG1Fc_Fxa_Mu GDF15 and Mu IgG1Fc_Fxa_Cyno GDF15 were 40 resonance units (RU), 32 RU and 25 RU respectively. Flow cell 1 was used as a reference flow cell. […] The dissociation was monitored for 2.8 hours and the surface was regenerated with 10 mM Glycine pH 1.7. Binding affinities and rate constants were determined for murine and cynomolgus monkey GDF15 by fitting the resulting sensorgram data to a 1:1 Langmuir model in BIAcore T200 Evaluation software version 2.0 (GE Healthcare).
(§2) Additionally, the binding of clone GDF15_001 to cynomolgus monkey and mouse GDF15 was measured using above mentioned BIAcore assay (Table 7).

[2] = biological target: T2, Mouse Fc-cynomolgus monkey GDF15 (Mu IgG1Fc_Fxa_Cyno GDF15) (cynomolgus monkey); experiment: as above
T2 construct: Whole entry is the fusion: mouse IgG1 Fc, FXa site and linker, cynomolgus GDF15; described as dimeric; also called Murine dimeric IgG1 Fc-cyno GDF-15 with FXa cleavage site
T2 chain: T1 chain with H239R, R254H, A287E, T296M, S297N, I345V
Protocol: as §1, §2

[3] = biological target: T1, Mouse Fc-human GDF15 (Mu IgG1Fc_Fxa_Hu …); experiment: SPR BIAcore T200, 37C; Fc-GDF15 captured, IgG as analyte; apparent KD
[4] = biological target: T1, Mouse Fc-human GDF15 (Mu IgG1Fc_Fxa_Hu …); experiment: SPR BIAcore T200, 37C; Fc-GDF15 captured, IgG as analyte; average of runs; apparent KD
[5] = biological target: Mouse Fc-mouse GDF15 (Mu IgG1Fc_Fxa_Mu GDF15) (mouse); experiment: SPR BIAcore T200, 37C; Fc-GDF15 captured, IgG as analyte
[6] = biological target: T1, Mouse Fc-human GDF15 (Mu IgG1Fc_Fxa_Hu …); experiment: SPR BIAcore T200, 37C; Fc-GDF15 captured, IgG as analyte; average of runs
Protocol: as §1, §2

[7] = biological target: Mouse Fc-mouse GDF15 (Mu IgG1Fc_Fxa_Mu GDF15) (mouse); experiment: as above
[8] = biological target: T1, Mouse Fc-human GDF15 (Mu IgG1Fc_Fxa_Hu …); experiment: SPR BIAcore T200, 37C; Fc-GDF15 captured, IgG as analyte
Protocol: as §1, §2

[9] = biological target: T1, Mouse Fc-human GDF15 (Mu IgG1Fc_Fxa_Hu …); experiment: as above
Protocol: as §1, §2

[10] = biological target: T2, Mouse Fc-cynomolgus monkey GDF15 (Mu …); experiment: as above
Protocol: as §1, §2

B1: GDF15_001 (antibody, human IgG1, kappa, V domains shown)
VH: QVQLVQSGAEVKKPGSSVKVSCKASGYTFSSYNIDWVRQAPGQGLEWMGGINPIFGTAFYNQKFQGRVTITADESTSTAYMELSSLRSEDTAVYYCAREAITTVGAMDHWGQGTLVTVSS
VL: EIVLTQSPATLSLSPGERATLSCRTSQSVHNYLAWYQQKPGQAPRLLIYDASTRADGIPARFSGSGSGTDFTLTISSLEPEDFAVYYCQQFWSWPWTFGQGTKVEIKR
notes: Tested in bivalent format; IgG1 heavy chain, kappa light chain; also called ponsegromab; PF-06946860
- koff [1]: 6.75e-06 s⁻¹
- kon [1]: 1.97e+06 M⁻¹ s⁻¹
- Kd [2]: 8.28 pM
- koff [2]: 1.19e-05 s⁻¹
- kon [2]: 1.48e+06 M⁻¹ s⁻¹
- Kd [3]: < 10 pM
- Kd [4]: < 10 pM
- Kd [5]: 114 pM and 175 pM and 138 pM
- T½ min [5]: 0.66 h and 0.447 h and 0.555 h
- koff [5]: 0.000292 s⁻¹ and 0.000431 s⁻¹ and 0.000347 s⁻¹
- kon [5]: 2.6e+06 M⁻¹ s⁻¹ and 2.5e+06 M⁻¹ s⁻¹ (2×)
- Kd [6]: < 10 pM
- koff [6]: 6.75e-06 s⁻¹
- kon [6]: 1.97e+06 M⁻¹ s⁻¹
- Kd [7]: 142 pM
- koff [7]: 0.000356 s⁻¹
- kon [7]: 2.51e+06 M⁻¹ s⁻¹
- Kd [8]: < 10 pM
- T½ min [8]: 40.3 h and 20.9 h and 30.8 h
- koff [8]: 4.78e-06 s⁻¹ and 9.22e-06 s⁻¹ and 6.25e-06 s⁻¹
- kon [8]: 1.69e+06 M⁻¹ s⁻¹ and 2.18e+06 M⁻¹ s⁻¹ and 2.03e+06 M⁻¹ s⁻¹
- T½ min [9]: 20.9 h and 30.8 h and 40.3 h
- koff [9]: 9.22e-06 s⁻¹ and 6.25e-06 s⁻¹ and 4.78e-06 s⁻¹
- kon [9]: 1.69e+06 M⁻¹ s⁻¹ and 2.03e+06 M⁻¹ s⁻¹ and 2.18e+06 M⁻¹ s⁻¹
- Kd [10]: 8.86 pM and 6.71 pM and 9.26 pM
- T½ min [10]: 14.8 h and 15.5 h and 18.7 h
- koff [10]: 1.3e-05 s⁻¹ and 1.24e-05 s⁻¹ and 1.03e-05 s⁻¹
- kon [10]: 1.47e+06 M⁻¹ s⁻¹ and 1.85e+06 M⁻¹ s⁻¹ and 1.12e+06 M⁻¹ s⁻¹
